Reference: US9074002B2, “PTP1B inhibitors” (Cold Spring Harbor Laboratory, priority 2009, dated 2015)
“Also recorded” adds a separate entry of the source.

Target: T1, endogenous PTP1B-OX (Homo sapiens, UniProt P18031)
T1 construct: endogenous in cells; host or cells: 293T cells (transfected only with the scFv intrabody)
T1 sequence (P18031 1-435): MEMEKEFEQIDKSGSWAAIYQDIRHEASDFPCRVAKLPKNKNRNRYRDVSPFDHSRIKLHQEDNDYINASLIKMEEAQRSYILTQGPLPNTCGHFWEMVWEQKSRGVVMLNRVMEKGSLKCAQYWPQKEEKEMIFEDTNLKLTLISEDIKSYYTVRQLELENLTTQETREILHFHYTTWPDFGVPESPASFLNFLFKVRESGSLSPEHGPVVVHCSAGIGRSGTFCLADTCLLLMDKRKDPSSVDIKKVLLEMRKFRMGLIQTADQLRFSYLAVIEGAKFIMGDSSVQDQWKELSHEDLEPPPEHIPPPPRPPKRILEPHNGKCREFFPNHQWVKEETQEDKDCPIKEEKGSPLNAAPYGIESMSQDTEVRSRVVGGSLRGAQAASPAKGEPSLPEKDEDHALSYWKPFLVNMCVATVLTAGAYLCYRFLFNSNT
Test: Intrabody interaction in 293T cells treated with H2O2 (Ni-NTA pull down / anti-PTP1B immunoprecipitation)
Type: cell-based
Conditions: 1 mM H2O2 5 minutes, FIGS. 11, 12
How it was run: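 293T cells transiently expressing HA-detected scFv intrabodies, serum-starved 16 h, then 1 mM H2O2 for 5 min or 20 mM NAC for 1 h at 37 °C (NAC lysates with 2 mM TCEP). Complexes from 1 mg lysate captured by Ni-NTA pull-down or anti-PTP1B (FG6) IP; PTP1B and intrabody detected by immunoblot.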

B1: scFv45: conformation-sensor scFv binding PTP1B-OX, SEQ ID NO: 26 and 78; expressed as intrabody (protein)
scFv: MKKTAIAIAVALAGFATVAQAALTQPSSVSANPGGTVKITCSGSSSAYGYGWYQQKSPGSAPVTVIYNNNKRPSNIPSRFSGSKSGSTGTLTITGVQAEDEAVYFCGSEDSSTDAIFGAGTTLTVLGQSSRSSTVTLDESGGGLQAPGGALSLVCKASGFTFSSYDMGWIRQAPGKGLEYVAGITDNGRYASYGSAVDGRATISRDNGQSSVRLQLNNLRAEDTGTYYCARDDGSGWTGNSIDAWGHGTEVIVSSTSGQAGQHHHHHHGAYPYDVPDYAS
binding of intrabody to endogenous PTP1B-OX: interaction between scFv45 and PTP1B-OX was observed; also recorded: co-pulldown of PTP1B-OX in the presence of H2O2

B2: scFv57: scFv binding PTP1B-OX, SEQ ID NO: 27 and 90 (protein)
scFv: MKKTAIAIAVALAGFATVAQAALTQPSSVSANPGAFNKITCSGSSSAYGYGWNQQKSPGSAPVTVIYNNNKRPSNIPSRFSGSKSGSTGTLTITGDQDEDEDFYFCGSEYSSTDAIFGAGTTLTVLGQSSRSSTVTLDESGGGLQAPGGALSLVCKASGFTFSSYDMGWIPQAPGKGLEYVAGITDNGIYASYGSAVDGRATISRDNRQSSVKLQLNNLKADDTGTYYCARDDGSGWTGNSIDAWGHGTEVIVSSTSGQAGQHHHHHHGAYPYDVPDYAS
binding of intrabody to endogenous PTP1B-OX: bound to endogenous PTP1B-OX strongly
